According to article PMC12908882 (Molecular cancer therapeutics, 2026):

Assays:
[1] = target: Human L1CAM fibronectin-like type III (FNIII) repeats, residues 606-1116, C-terminal 6x His tag (Homo sapiens, UniProt P32004); assay: BLI
[2] = target: Extracellular domain of human L1CAM fused to a poly-histidine tag (L1CAM-His) (Homo sapiens, UniProt P32004); assay: BLI
[3] = target: Human L1CAM expressed on transfected HEK293T cells (HEK293T-L1CAM cells) (Homo sapiens, UniProt P32004); assay: flow cytometry on cells
Sequence of Human L1CAM expressed on transfected HEK293T cells (HEK293T-L1CAM cells) (P32004 20-1257): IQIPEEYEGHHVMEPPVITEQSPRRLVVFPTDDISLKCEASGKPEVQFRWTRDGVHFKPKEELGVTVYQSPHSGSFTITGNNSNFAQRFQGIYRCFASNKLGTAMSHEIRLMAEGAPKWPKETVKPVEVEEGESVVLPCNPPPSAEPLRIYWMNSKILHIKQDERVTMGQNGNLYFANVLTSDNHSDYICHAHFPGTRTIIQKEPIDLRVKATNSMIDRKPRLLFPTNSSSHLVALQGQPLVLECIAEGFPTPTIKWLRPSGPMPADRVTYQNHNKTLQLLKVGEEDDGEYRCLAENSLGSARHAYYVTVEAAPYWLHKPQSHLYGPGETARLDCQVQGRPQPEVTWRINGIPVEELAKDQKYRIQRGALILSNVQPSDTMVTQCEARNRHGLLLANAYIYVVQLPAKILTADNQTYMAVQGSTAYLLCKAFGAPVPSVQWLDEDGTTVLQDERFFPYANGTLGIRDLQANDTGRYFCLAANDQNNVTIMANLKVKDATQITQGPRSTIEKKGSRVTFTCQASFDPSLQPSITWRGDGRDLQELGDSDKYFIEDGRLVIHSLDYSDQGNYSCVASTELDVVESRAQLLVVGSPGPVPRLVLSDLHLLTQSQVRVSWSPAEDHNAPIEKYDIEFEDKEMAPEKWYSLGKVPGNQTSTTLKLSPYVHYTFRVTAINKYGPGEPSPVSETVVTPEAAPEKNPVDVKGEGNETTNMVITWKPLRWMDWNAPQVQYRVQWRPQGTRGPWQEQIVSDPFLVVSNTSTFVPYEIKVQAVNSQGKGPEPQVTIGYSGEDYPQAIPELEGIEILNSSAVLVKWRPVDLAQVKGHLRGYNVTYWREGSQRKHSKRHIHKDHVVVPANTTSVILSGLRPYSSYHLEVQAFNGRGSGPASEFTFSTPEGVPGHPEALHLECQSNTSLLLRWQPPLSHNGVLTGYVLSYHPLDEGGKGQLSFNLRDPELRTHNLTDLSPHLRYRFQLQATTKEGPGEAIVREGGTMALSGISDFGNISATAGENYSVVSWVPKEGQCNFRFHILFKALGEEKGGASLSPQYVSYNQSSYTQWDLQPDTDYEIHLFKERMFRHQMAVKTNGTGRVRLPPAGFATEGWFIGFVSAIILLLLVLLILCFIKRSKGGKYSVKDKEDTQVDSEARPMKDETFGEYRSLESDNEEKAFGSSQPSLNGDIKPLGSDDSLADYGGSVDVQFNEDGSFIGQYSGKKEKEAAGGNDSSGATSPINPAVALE

[4] = target: Human L1CAM Ig-like domains, residues 21-605, C-terminal 6x His tag (Homo sapiens, UniProt P32004); assay: BLI
Sequence of Human L1CAM Ig-like domains, residues 21-605, C-terminal 6x His tag (P32004 21-605): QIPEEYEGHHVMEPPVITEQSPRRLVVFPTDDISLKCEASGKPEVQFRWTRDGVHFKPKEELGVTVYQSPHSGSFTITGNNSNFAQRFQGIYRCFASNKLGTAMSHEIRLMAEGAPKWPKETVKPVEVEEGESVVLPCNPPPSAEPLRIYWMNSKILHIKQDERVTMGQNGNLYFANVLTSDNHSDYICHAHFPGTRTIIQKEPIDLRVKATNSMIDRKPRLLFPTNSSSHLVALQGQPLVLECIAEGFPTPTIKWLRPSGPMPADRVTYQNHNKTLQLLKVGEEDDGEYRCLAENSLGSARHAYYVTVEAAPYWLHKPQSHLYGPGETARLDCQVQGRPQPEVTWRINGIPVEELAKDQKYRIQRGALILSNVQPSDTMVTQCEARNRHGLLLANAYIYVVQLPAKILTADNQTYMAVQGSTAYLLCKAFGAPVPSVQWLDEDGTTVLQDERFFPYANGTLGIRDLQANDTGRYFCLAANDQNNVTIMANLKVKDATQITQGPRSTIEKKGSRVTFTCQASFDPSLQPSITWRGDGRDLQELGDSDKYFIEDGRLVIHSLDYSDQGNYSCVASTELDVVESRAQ

[5] = target: His-tagged, monomeric mouse L1CAM protein (Mus musculus, UniProt P11627); assay: BLI
Sequence of His-tagged, monomeric mouse L1CAM protein (P11627 whole entry, looked up, tested part not stated): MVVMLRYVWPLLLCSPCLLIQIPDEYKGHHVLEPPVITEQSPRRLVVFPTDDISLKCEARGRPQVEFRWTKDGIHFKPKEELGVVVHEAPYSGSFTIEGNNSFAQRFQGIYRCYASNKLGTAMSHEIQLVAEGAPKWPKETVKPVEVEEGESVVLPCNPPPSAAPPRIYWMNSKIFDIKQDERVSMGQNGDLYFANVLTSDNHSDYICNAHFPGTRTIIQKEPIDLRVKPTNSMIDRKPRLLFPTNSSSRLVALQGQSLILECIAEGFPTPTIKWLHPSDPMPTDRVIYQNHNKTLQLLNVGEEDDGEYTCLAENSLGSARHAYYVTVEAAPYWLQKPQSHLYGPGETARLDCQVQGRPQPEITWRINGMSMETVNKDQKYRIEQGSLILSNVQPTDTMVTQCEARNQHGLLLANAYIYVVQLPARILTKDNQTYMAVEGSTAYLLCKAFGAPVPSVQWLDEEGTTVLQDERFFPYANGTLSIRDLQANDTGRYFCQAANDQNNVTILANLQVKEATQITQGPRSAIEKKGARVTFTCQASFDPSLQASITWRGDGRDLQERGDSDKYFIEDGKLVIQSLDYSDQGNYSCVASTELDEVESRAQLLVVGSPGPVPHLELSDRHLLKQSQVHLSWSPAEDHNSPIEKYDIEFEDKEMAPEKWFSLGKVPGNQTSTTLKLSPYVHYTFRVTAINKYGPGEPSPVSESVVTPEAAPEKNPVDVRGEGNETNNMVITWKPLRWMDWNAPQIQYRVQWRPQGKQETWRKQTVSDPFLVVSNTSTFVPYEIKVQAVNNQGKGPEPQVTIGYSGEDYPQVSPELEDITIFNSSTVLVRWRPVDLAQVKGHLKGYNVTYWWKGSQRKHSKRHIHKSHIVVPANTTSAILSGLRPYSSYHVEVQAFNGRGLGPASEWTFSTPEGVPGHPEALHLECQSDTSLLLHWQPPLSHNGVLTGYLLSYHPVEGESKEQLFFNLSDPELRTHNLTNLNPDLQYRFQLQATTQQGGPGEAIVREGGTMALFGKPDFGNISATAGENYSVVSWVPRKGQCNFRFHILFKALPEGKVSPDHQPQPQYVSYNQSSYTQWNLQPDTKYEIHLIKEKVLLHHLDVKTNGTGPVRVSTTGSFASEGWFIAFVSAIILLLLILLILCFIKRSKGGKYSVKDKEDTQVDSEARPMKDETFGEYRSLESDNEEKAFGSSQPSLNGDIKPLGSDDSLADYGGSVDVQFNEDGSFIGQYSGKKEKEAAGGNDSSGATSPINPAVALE

Measured: binding result

Sequence of Extracellular domain of human L1CAM fused to a poly-histidine tag (L1CAM-His) (P32004 20-1120): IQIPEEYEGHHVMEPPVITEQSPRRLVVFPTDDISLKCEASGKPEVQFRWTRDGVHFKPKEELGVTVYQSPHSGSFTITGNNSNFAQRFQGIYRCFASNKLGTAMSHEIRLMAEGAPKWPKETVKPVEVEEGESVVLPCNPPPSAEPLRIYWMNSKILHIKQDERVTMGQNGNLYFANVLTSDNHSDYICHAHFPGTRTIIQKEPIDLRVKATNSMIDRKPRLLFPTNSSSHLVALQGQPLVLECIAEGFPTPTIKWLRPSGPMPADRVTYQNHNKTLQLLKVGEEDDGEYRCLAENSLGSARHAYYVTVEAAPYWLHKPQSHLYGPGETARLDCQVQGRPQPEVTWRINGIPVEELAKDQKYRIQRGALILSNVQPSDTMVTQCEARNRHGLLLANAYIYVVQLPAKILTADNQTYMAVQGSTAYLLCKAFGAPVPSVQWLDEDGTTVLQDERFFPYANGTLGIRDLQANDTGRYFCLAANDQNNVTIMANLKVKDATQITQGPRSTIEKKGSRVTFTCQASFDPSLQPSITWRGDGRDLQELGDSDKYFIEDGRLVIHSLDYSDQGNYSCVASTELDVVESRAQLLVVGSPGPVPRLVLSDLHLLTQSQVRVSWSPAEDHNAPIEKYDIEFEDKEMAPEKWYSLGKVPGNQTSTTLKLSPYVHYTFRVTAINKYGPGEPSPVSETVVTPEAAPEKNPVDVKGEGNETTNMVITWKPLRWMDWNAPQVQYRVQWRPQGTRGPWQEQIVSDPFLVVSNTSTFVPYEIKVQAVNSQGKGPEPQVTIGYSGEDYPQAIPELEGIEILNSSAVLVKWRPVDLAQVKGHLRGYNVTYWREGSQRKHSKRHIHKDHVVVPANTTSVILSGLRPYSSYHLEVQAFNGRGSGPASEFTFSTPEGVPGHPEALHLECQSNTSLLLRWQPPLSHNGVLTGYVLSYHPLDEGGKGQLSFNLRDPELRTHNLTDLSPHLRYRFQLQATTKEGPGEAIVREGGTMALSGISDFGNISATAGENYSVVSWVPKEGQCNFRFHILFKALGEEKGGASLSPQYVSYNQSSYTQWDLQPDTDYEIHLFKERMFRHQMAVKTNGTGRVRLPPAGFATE
Sequence of Human L1CAM fibronectin-like type III (FNIII) repeats, residues 606-1116, C-terminal 6x His tag (P32004 606-1116): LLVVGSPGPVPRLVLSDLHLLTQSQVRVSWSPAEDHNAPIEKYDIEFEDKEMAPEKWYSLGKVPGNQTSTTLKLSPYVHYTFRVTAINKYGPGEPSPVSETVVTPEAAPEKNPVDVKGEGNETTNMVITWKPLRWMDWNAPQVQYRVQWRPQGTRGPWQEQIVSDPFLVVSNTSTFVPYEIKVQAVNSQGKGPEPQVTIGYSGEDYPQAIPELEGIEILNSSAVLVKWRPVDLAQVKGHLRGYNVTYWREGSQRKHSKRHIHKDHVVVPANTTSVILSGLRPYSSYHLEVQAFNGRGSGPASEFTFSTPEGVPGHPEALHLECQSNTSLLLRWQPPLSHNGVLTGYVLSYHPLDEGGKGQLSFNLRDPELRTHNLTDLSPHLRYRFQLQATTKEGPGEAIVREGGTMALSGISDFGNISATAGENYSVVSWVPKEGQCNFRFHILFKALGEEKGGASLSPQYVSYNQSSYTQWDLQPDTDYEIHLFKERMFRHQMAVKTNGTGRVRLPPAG

B1: 143G03 monoclonal antibody to human L1CAM (antibody, V domains shown)
VH: QVQLVQSGAEVKKPGSSVKVSCKASGYTFTNYYIHWVRQAPGQGLEWMGKIGPGSGSPYYQGMFKDRVTITADESTSTAYMELSSLRSEDTAVYYCARWLLPFDYWGQGTLVTVSS
VL: EIVLTQSPGTLSLSPGERATLSCRASSSVNYMHWYQQKPGQAPRLLIYATSILASGIPDRFSGSGSGTDYTLTISRLEPEDFAVYYCQQFSSDPLTFGGGTKVEIK
binds: [1] | [2] | [3]

B2: 13F04 monoclonal antibody to human L1CAM (antibody, V domains shown)
VH: QVQLQQPGAELVKPGASVKLSCKASGYIFISYWMHWVKQRPGQGLEWIGEINPRNGRTNYNEKFKSKATLTVDKSSSTAYMQLTSLTSEDSAVYYCARGGDYGGSFDYWGQGTTLTVSS
VL: DIVLTQSPASLAVSLGQRATISCRASESVDSYGNSFMHWYQQKPGQPPKLLIYRASNLESGIPARFSGSGSRTDFTLTVNPVEADDVATYYCQQSNEDPWTFGGGTKLEIK
binds: [4] | [3]

B3: 14A10 monoclonal antibody to human L1CAM (antibody, V domains shown)
VH: EVQMVESGGGLVQPGGSLRLSCAAPGFIFSSYNMNWVRQAPGKGLEWVSYISSSSSTTYYADSVKGRFTISRDNAKNSLYLQMNSLRDEDTAVYYCASLYSGYDYYYYYGMDVWGQGTTVTVSS
VL: DIVMTQTPLSSPVSLGQPASISCRSSQSLVHSDGNTYLSWLQQRPGQPPRVLIYKISKRFSGVPDRFSGSGAGTDFTLKISRVEAEDVGVYYCMQATQFPFTFGPGTKVDIK
not listed: [1]
binds: all other assays above
